Assay results from patent US20260092920A1 (FIBROINOVA BIOMEDICAL TECHNOLOGY GUANGZHOU, published 2026).

Target: T1, His-tagged extracellular domain of antigen DDR2 (human, UniProt Q16832 22-399)
T1 construct: range 22-399; Captured on Ni-NTA sensors in BLI; also called extracellular domain protein of the DDR2 antigen; DDR2 antigen; not shown: His tag
T1 sequence (looked up): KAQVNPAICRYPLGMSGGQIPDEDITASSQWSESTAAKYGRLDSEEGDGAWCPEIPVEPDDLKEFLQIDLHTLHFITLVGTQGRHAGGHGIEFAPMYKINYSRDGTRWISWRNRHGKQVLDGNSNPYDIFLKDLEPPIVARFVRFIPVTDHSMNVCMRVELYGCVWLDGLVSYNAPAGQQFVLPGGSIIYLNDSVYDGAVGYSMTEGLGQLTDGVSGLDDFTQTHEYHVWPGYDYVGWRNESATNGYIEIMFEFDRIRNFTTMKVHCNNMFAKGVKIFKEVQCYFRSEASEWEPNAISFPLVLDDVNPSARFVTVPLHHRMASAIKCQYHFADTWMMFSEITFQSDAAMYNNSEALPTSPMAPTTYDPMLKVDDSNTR
Assay: BLI (ForteBio), His-tagged DDR2 extracellular domain captured on Ni-NTA sensor, nanobody 100 nM to 3.125 nM in solution, 1:1 fit
Procedure: For the DDR2 nanobody 1A12 described above, based on the ForteBio bio-layer interferometry (BLI) platform for molecular interaction analysis, the affinity of the nanobody for the extracellular domain protein of the DDR2 antigen was analyzed and detected by determining the affinity of the antibody for the antigen by using the BLI method.
The kinetic curves were made, and the relevant parameters were calculated. Appropriate binding and dissociation curves of several concentration gradients were selected. All the curves were fitted using the 1:1 binding model. Three curves with the best fitting degrees were selected for plotting and analysis. Finally, important parameters such as affinity value, binding constant, and dissociation constant were obtained.

Kd: 4.36 nM
B1: DDR2 nanobody 1A12 (VHH)
VHH: EVQLVESGGGLVQPGGSLRLSCAASGYILSPNVMGWFRQAPGKGRELVAAISWGDGRTYYPDSVEGRFTISRDNAKRMVYLQMNSLRAEDTAVYYCAASRKGYPSTRSDPYNYWGQGTQVTVSS
notes: VHH of an alpaca heavy chain antibody raised against the human DDR2 extracellular domain; Expressed and purified; also called Nb-DDR2; 1A12-VHH
